For assay [1], the target named is T1, human ABCG2 (UniProt Q9UNQ0 1-655).
T1 chain: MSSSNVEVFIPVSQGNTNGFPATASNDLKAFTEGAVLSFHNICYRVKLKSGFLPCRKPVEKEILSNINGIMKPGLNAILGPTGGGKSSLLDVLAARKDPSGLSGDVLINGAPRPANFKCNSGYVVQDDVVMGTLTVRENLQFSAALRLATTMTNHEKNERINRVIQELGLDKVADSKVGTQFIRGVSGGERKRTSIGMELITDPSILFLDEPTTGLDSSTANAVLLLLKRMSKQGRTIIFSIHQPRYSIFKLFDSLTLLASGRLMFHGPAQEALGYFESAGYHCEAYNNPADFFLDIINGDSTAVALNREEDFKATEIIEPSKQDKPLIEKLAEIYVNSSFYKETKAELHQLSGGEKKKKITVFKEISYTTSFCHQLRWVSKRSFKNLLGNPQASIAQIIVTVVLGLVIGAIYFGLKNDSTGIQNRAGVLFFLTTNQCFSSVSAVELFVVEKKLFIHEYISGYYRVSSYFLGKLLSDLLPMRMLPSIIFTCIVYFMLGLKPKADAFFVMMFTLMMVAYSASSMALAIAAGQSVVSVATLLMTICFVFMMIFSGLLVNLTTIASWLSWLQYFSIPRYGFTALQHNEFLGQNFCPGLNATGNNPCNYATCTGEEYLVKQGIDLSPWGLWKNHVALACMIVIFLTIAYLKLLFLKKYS
Briefly: FACS cell binding.

Assay [2] has as its target T1, human ABCG2. Kind of assay: cell binding.
For assay [3], the target named is T2, cynomolgus ABCG2 (Macaca fascicularis) (UniProt Q5MB13 1-654).
T2 chain: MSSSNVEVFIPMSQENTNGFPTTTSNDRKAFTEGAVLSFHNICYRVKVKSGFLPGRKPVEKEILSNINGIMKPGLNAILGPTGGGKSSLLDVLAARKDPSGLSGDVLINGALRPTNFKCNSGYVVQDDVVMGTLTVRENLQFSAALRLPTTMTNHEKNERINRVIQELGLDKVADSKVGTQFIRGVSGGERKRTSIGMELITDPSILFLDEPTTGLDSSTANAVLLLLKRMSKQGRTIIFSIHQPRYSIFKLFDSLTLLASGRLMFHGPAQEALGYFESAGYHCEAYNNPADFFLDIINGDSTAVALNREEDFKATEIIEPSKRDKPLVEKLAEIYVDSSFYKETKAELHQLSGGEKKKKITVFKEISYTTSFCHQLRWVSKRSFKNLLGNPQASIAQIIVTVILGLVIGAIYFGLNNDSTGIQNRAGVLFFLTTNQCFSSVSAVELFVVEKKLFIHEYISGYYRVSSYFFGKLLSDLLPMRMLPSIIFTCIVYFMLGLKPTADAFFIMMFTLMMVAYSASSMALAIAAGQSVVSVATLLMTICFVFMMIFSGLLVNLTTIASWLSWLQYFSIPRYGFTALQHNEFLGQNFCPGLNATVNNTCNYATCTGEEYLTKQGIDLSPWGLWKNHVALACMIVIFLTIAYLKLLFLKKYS
Briefly: cell binding.

The target in assay [4] is T1, human ABCG2. Briefly: FACS binding to 293T cells.
Assay [5] deals with T2, cynomolgus ABCG2 (Macaca fascicularis). Kind of assay: FACS binding to 293T cells. For orientation: In flow cytometry, cells or beads pass a laser one at a time.
Assay [6] has as its target T1, human ABCG2. Briefly: FACS binding to 293T cells.
The target in assay [7] is T2, cynomolgus ABCG2 (Macaca fascicularis). Kind of assay: FACS binding to 293T cells.
Assay [8] has as its target T1, human ABCG2. Kind of assay: FACS cell binding (MFI).
The target in assay [9] is T1, human ABCG2. Kind of assay: FACS binding to 293T.hG2 cells.
Assay [10] deals with T1, human ABCG2. Kind of assay: FACS binding to 293T cells.
Assay [11] deals with T2, cynomolgus ABCG2 (Macaca fascicularis). Briefly: FACS binding to 293T cells.
In assay [12] the target is T1, human ABCG2. Briefly: FACS binding to 293T cells.
Assay [13] deals with T2, cynomolgus ABCG2 (Macaca fascicularis). Kind of assay: FACS binding to 293T cells.
The target is the same in assay [14]. Kind of assay: FACS binding to 293T.cG2 cells.
Assay [15] addresses G2_418. Briefly: FACS binding to 293T cells.
Assay [16] concerns the target G2_639. Briefly: FACS binding to 293T cells.
The target of assay [17] is G2_656. Kind of assay: FACS binding to 293T cells.
Assay [18] deals with G2_336. Kind of assay: FACS binding to 293T cells.
The target of assay [19] is G2_709. Briefly: FACS binding to 293T cells.
Assay [20] has as its target G2_377. Kind of assay: FACS binding to 293T cells.

From patent US20230212305A1 (published 2023) come the findings set out here.

Residue numbers refer to the chain shown, from its start.

B1: G2.173 Humanized 3 (antibody, V domains shown)
VH: EVQLVQSGAEVKKPGASVKVSCKASGFNIKDDYVHWVRQAPGQGLEWIGRIDPASGNTRYAPKFRGRATMTADTSISTAYMELSRLRSDDTAVYYCSPPLWVGGFAYWGQGTLVTVSS
VL: DVVMTQSPLSLPVTLGQPASISCRSSQSLVHSDVNTYLHWYQQRPGQSPRLLIYKVSNRFSGVPDRFSGSGSGTDFTLKISRVEAEDVGVYFCSQTTHVPYTFGGGTKLEIK
As a reminder, the Kd is the free concentration of one partner at which half of the binding sites on the other are occupied at equilibrium, for simple one-to-one binding. Low values mean higher affinity, high ones lower affinity. B1: binding in assay [1] was put at a Kd of 33.5 nM.

B2: G2.636 rat (antibody, V domains shown)
VH: EVKLVESGGGLVQPGRSLKLSCAASGFTFSRFYMAWVRQAPTKGLEWVAHISHGGDTTYYRDSVKGRFTISRDNAKSTLFLQMDSLRSEDTATYYCTTSAAPWNYVMDGWGLGASVTVSS
VL: DIVMTQSPSLLSASVGDRVTLTCKGSQNINNFLAWYQQKLGEAPKLLIYKTNSLHTGIPSRFSGSGSGTDYTLTISSLHSEDLATYYCYQYNNGYTFGAGTKLELK
Usually EC50 stands for the concentration at which the effect is half-maximal. The low end stands for a more potent agent, the high end for a less potent agent. B2: the values for the EC50 in assay [2] and in [3] were 80 nM and 341 nM, respectively. Besides, the Kd in [4] worked out at 10.9 nM; in assay [5], 62.5 nM.

B3: G2_392 (antibody, V domains shown)
VH: VQLVESGPDLVQPSQTLSLTCTVSGLSLTSTGVSWIRQPPGRGLEWMGVIWSNGGTDYNSAIRSRLSISRDTSKSQVFLKMNSLQTEDTAMYFCARAIAASYIMDAWGQGASVTVSS
VL: DIQMTQSPPSLSASLGDKVTITCQASQNIHKYIAWYRHKPGKPPRLLIRYTSTLQSGTPSRFSGSGSGRDYSFSISNVESEDIASYYCLQYVNLWTFGGGTKLELK
Regarding B3, the dissociation constant (Kd) amounted to 35.3 nM in assay [6] and 93.4 nM in assay [7].

B4: G2_360 (antibody, V domains shown)
VH: QVQLRESGPGLVQPSQTLSLTCTVSGLSLTSNSISWIRQPPGKGLEWMGVIWSTGGTDYNSAIKSRLSISRDTSKSQVFLKMNSLQTEDTAMYFCARAIAASAVMDAWGQGASVTVSS
VL: B3 VL with A34G, R37Q, H38Q, P43A, Q55E, D70Y
For the molecule B4, the Kd in assay [6] was found to be 23.7 nM; in [7], 156 nM.

B5: G2_746 (antibody, V domains shown)
VH: VKLEESGPGLVLPSQTLSLSCTVSGLSLISNSISWIRQPPGKGLEWMGVMWNNGGTDYNSAIKSRLSISRDTSKSQVFLKMNSLQTEDTAMYFCARGYSSYIFDYWGQGASVTVSS
VL: B3 VL with Q3L, K31G, R37Q, H38Q, K42R, P43L, Y50L, Q55E, I83L
B5: the dissociation constant (Kd) in assay [4] worked out at 22.3 nM; in assay [5], 66.4 nM.

B6: G2.302 mouse (antibody, V domains shown)
VH: QIQLQQSGPELVRPGASVKISCKASGYTFTDYYINWVKQRPGQGLEWIGWIYPGNVNVKYNEKFKGKATLTVDTSSSTGYMQLRSLTSEDSAVYFCARSIGLRYFDNWGQGTTLTVSS
VL: EKVLTQSPAIMSASLGEKVTMSCRASSSVHYMYWHQQKSDASPRLWIYYTSNLAPGVPARFSGSGSGNFYSLTISSVEDEDGATYYCQQFTTSTWTFGGGTKLEIK
Molecule B6 had a Kd in assay [1] of 33.6 nM. The molecule also displayed an EC50 in [8] of 18.5 nM.

B7: anti-ABCG2 antibody 5D3 (antibody, V domains shown)
VH: QVQLQESGPGLVKPSQSLSLTCTVTGFSITSDYAWNWIRQFPGKKLEWMGYINFDGGTTYNPSLRGRISITRDTSKNQFFLQLRSVTPEDTATYYCATFYGAKGTLDYWGQGTSVTVSS
VL: DIVLTQSPSSFSVSLGDRVTISCKASGYILNRLAWYQQKPGNAPRLLISGATSLETGFPSRFSGTGSGKDYTLSISSLQTEDVGTYYCQQYWSTPWTFGGGTKLEIK
Consider B7, for which the dissociation constant (Kd) came out at 37.7 nM in assay [9]; 15.7 nM in assay [10]; 253 nM in [11]; 37.7 nM in assay [12]; 99.2 nM in assay [13]; 99.2 nM in assay [14]. Also, the EC50 was determined as 4.9 nM in assay [2], 131 nM in [3] and 8.5 nM in [8].

B8: cG2 (other)
chain: T2 chain
In the case of B8, the Kd in [15] came out at 38.8 nM; in assay [16] it was 14.3 nM; in assay [17], 272 nM; in [18], 410 nM; in assay [19] it was 41.4 nM; in [20], 31.4 nM.

B9: G2.748 rat (antibody, V domains shown)
VH: QVSLKESGPGMLQPSKTLSLTCSFSGFSLSTSGMVVNWIRQPSGKSLEWLAAIDWDGDKYYNPSLKHRLTVSKDTSNTQVVLKITSVDTADTATYYCARSIAPYRGWFGYWGQGTLVTVSS
VL: EIVLIQSPSSLPASLGERVTIICRASQDIGNNLNWYQQKPDGTIKPLIYFTSNFQSGVPSSFSGSRSGTDFSLTISSLEAEDFAMYYCQQDASLPWTFGGGTKLEIK
For the molecule B9, the Kd in assay [9], in assay [12], in [13] and in assay [14] was 0.5 nM each time.
